Laboratory results: patent US20200055941A1 (MILTENYI BIOTEC, published 2020)

T1: Recombinant Human Fc gamma RIIb/CD32b (human, UniProt P31994 46-217)
T1 construct: also called FcγRIIb; CD32b/c
T1 sequence (looked up): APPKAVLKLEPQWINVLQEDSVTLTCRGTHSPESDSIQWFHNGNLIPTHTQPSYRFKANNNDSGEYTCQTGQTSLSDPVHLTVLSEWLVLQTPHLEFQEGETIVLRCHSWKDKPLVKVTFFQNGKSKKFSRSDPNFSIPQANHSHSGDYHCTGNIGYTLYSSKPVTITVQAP

B1: aCD303-hIgG4-WT (antibody)
heavy: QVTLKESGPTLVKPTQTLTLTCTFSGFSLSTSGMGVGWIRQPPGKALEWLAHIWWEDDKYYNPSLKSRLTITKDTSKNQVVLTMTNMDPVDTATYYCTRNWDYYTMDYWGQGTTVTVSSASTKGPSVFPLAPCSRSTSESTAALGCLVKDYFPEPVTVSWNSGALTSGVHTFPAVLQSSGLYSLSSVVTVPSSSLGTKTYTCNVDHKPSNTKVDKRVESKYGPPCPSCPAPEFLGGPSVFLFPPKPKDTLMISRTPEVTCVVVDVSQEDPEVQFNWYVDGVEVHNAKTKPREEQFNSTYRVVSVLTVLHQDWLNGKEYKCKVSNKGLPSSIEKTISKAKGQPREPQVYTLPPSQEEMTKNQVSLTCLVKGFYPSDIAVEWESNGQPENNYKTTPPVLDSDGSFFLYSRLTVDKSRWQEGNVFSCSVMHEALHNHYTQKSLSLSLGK
light: DIQMTQSPSSVSASVGDRVTITCRASQEISGYLSWYQQKPGKAIKRLIYAASTLDSGVPSRFSGSRSGTDFTLTISSLQSEDFATYYCLQYASYPPTFGGGTKLEIKGTVAAPSVFIFPPSDEQLKSGTASVVCLLNNFYPREAKVQWKVDNALQSGNSQESVTEQDSKDSTYSLSSTLTLSKADYEKHKVYACEVTHQGLSSPVTKSFNRGEC
notes: MB101 (anti-CD303) expressed as a wild type IgG4; also called wt IgG4; wild type IgG4 antibody (aCD303-hIgG4)
B2: MB101 (aCD303-hIgG4-S241P/R409K) (antibody)
heavy: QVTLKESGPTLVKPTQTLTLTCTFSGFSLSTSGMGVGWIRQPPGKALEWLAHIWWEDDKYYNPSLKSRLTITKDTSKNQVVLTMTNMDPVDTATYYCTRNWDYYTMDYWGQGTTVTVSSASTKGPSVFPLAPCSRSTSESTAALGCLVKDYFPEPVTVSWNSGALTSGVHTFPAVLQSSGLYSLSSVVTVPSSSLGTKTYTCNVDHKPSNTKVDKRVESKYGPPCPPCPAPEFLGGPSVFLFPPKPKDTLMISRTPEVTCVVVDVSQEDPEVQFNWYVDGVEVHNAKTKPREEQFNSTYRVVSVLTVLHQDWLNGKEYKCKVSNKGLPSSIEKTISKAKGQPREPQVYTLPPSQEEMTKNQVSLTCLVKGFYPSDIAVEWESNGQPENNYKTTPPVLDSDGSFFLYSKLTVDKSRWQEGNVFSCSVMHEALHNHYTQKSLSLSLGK
light: B1 light
notes: Humanized IgG4 against BDCA-2 (CD303), made in CHO DG44 cells; also called MB101.10; anti-CD303 IgG4 S241P/R409K
B3: Pool 6 (aCD303-hIgG4-R409K) (antibody)
heavy: QVTLKESGPTLVKPTQTLTLTCTFSGFSLSTSGMGVGWIRQPPGKALEWLAHIWWEDDKYYNPSLKSRLTITKDTSKNQVVLTMTNMDPVDTATYYCTRNWDYYTMDYWGQGTTVTVSSASTKGPSVFPLAPCSRSTSESTAALGCLVKDYFPEPVTVSWNSGALTSGVHTFPAVLQSSGLYSLSSVVTVPSSSLGTKTYTCNVDHKPSNTKVDKRVESKYGPPCPSCPAPEFLGGPSVFLFPPKPKDTLMISRTPEVTCVVVDVSQEDPEVQFNWYVDGVEVHNAKTKPREEQFNSTYRVVSVLTVLHQDWLNGKEYKCKVSNKGLPSSIEKTISKAKGQPREPQVYTLPPSQEEMTKNQVSLTCLVKGFYPSDIAVEWESNGQPENNYKTTPPVLDSDGSFFLYSKLTVDKSRWQEGNVFSCSVMHEALHNHYTQKSLSLSLGK
light: B1 light
notes: Single mutation variant of MB101; also called anti-CD303 IgG4 R409K; IgG4 variant R409K

What was measured:
[1] = target: T1, Recombinant Human Fc gamma RIIb/CD32b; assay: ELISA, plates coated with recombinant CD32b/c, anti-human kappa-HRP
Protocol: To examine more precisely the CD32b/c binding of MB101, the wt IgG₄ and the two single mutation variants, linear dilutions of the mAbs were incubated with ELISA plates previously coated with recombinant CD32b/c. FcR-bound anti-BDCA2 Ab were probed with anti-human kappa-HRP and TMB-substrate.
(§1) ELISA plates were coated with Fc gamma receptors I, IIa, IIb, IIIa and IIIb with 5 μg/mL each in coating buffer overnight at 4° C. Coated plates were washed 3-fold with 1×PBS 0.05% Tween 20 and blocked with 5% BSA in 1×PBS. Antibodies were applied to ELISA plates with 50 μL/well at serial 2-fold dilution of antibody solution and incubated at room temperature for 1 h. As blank controls, respective antibody concentrations were also applied to wells lacking coated Fc gamma receptors, in order to subtract unspecific binding from resulting signals. After washing (see above), the detection antibody anti-human kappa-HRP (FE 110316.07) 1:4000 in 1×PBS was applied with 50 μL/well and incubated again at RT for 1 h. After additional washing (see above), for assay development 50 μL/well TMB (CH111027.37) were applied and stopped after approx. 5 minutes with 50 μL/well 10% H₂SO₄. The developed plate was then analyzed via ELISA reader at 450 nm wavelength.

[2] = target: T1, Recombinant Human Fc gamma RIIb/CD32b; assay: ELISA, plate-bound recombinant receptor, anti-human kappa-HRP
Protocol: as §1

[3] = target: T2, Recombinant Human Fc gamma RIIIb/CD16b (human, UniProt O75015 17-200); assay: as above
T2 construct: also called Fcγ RIIIb/c; CD16b/c
T2 sequence (O75015 17-200 limits assumed): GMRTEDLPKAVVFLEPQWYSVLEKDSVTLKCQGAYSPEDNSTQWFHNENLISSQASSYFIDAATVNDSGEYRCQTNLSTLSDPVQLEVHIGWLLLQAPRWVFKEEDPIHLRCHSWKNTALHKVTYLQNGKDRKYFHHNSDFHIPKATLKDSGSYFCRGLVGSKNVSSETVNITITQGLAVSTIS
Protocol: as §1

Row | Binder | binding result [1] | binding result [2] | binding result [3]
1 | B1 | binds | – | –
2 | B2 | – | binds | no binding
3 | B3 | binds | – | –
